Assay results taken from patent US9199028B2, “Use of entrained neutrophils to treat metastatic and micrometastatic disease in at risk patients” (MEMORIAL SLOAN-KETTERING CANCER CENTER, priority 2010, dated 2015).

Tests used:
MDA-MB-231 cells = experiment: In vitro killing assay: human neutrophils co-cultured with luciferase labelled MDA-MB-231 cells; type: cell-based; conditions: naïve human neutrophils:tumor cells 1:1, chemokine 100 ng/ml (rhG-CSF 20 ng/ml), overnight
From the text: Luciferase is under a constitutive promoter so cell death results in a decrease in luciferase activity because there is no transcription/translation of the lucierferase gene. The assay itself requires lysing of the cell to release the luciferase to mix with the luciferin and measure the luminescence. But it isn't that they dying cell releases luciferase. More signal means more luciferase which means more live cells. […]. […] Nave human neutrophils were co-cultured with MDA-MB-231 cells. […] Cells were seeded at a ratio of human neutrophils:human tumor cells=1:1.
Antibodies used for immunohistochemistry—MMP9, F4/80 and CCR2 (all from AbCam), Myeloperoxidase (Dako), Ly-6G and Cd11b (both from BD), and Cleaved Caspase 3 (Cell signalling). Antibodies used for western blotting—Actin (Sigma), CCL2 (AbCam) and CCL5 (R&D) p-SMAD2 (cell signalling). Antibodies used for FACS analysis FITC-Ly-6G, FITC-Cd11b, FITC-F4/80, FITC-Cd34 and FITC-c-Kit (all from BD) and VEGFR1-AP (R&D). Neutrophil Depletion Neutrophil depletion was achieved using daily IP injections of 12.5 μg Rat anti-Gr-1 antibody (BD) or Rat anti-Ly-6G antibody (BD) starting on day 3 post tumour engraftment. Starting on day 14, neutrophil depleting antibodies were administered twice daily. Control mice were injected with […] Rat isotype control (BD). Neutrophil depletion was monitored by manual blood differentials and FACS analysis. Flow Cytometry Peripheral blood was collected into EDTA-coated tubes, washed and resuspended in FACS buffer solution (PBS, 2% heat-inactivated FCS, 5 mM EDTA, and 0.02% sodium azide). The samples were blocked with […] and then incubated with fluorophore-conjugated antibodies. Erythrocytes were then lysed with FACS lysing solution (BD Biosciences) and the cell suspensions were analyzed on a FACSCalibur (BD Biosciences). Colony Formation Assay Female nude mice were orthotopically injected with 5×10^6 puromicin resistant 4T1 cells. On days 7 and 14 post tumour engraftment the mice were sacrificed and perfused with PBS. The lungs and livers were removed, washed with PBS and dissociated with Collagenase A (Roche). The single cell suspension was then plated onto puromicin containing media and selected for 14 day. Colonies were stained with Methylene-Blue and counted manually. Mouse Neutrophil Purification Whole blood was collected by cardiac puncture using heparinized (Sigma) syringe. The blood was diluted with 5 volumes of PBS containing 0.5% BSA and subjected to a discontinuous Histopaque (Sigma) gradient (1.077 and 1.119). Neutrophils were collected from the 1.077-1.119 interface, lymphocytes and monocytes collected from the plasma-1.077 interface. RBCs were eliminated by hypotonic lysis. The cells were washed twice with PBS-BSA and re-suspended in OptiMEM (Invitrogen) 0.5% FBS in a final concentration of 2×10^6 cells/ml. Neutrophil purity and viability were determined visually and were consistently >98%. Human Neutrophil Purification As part of a Memorial Sloan-Kettering Cancer Center institutionally approved protocol, blood samples (˜10 cc) were collected from healthy volunteers or from patients who were already having blood drawn for pre-surgical testing. Patients were consented accordingly as part of the approved protocol. […] Patients had either mastectomies or lumpectomies planned and had blood drawn prior to definitive surgical removal of their primary tumor or chemotherapy. Blood samples were transferred to the lab for analysis no more than 1 hour post-blood draw. Heparinzed blood (20 U/ml final) was mixed with an equal volume of Dextran 500 (3% in saline) and incubated 30 minutes at room temperature. The leukocyte-rich supernatant was layered on top of histopaque 1077 (Sigma) and centrifuged. Neutrophils, collected in the pellet fraction, were resuspended in 10 ml 0.2% NaCl for 30 seconds to remove contaminating erythrocytes. Isotonicity was restored by the addition of 10 ml 1.6% NaCl. […]

4T1 cells = experiment: In vivo stimulation of neutrophils with chemokines, purified neutrophils co-cultured with 4T1 cells; type: cell-based, mouse; conditions: healthy mice treated in vivo with G-CSF alone or G-CSF plus chemokine
Description: A. To test which chemokines may participate in the stimulation of neutrophils, neutrophils purified from healthy mice were co-culture with luciferase labeled 4T1 cells in the presence (20 ng/ml of chemokine) or absence of certain chemokines for an overnight incubation. […] B. To test which chemokines are sufficient for in vivo stimulation of neutrophils healthy mice were treated with G-CSF (to boost neutrophil numbers) and either CCL2, CCL5 or CXCL1. Control mice were treated with G-CSF alone. Neutrophils were purified from these mice and co-cultured with Luciferase-labeled 4T1 cells. […] Conclusion—CCL2 and to a lesser degree CCL5 can stimulate tumor cell killing both in vitro and in vivo.

B1: rhG-CSF: recombinant methionyl human granulocyte colony-stimulating factor (Neupogen, Amgen) (protein, chains of the INN, looked up)
chain: MTPLGPASSLPQSFLLKCLEQVRKIQGDGAALQEKLCATYKLCHPEELVLLGHSLGIPWAPLSSCPSQALQLAGCLSQLHSGLFLYQGLLQALEGISPELGPTLDTLQLDVADFATTIWQQMEELGMAPALQPTQGAMPAFASAFQRRAGGVLVASHLQSFLEVSYRVLRHLAQP
modifications: N-terminal methionine
MDA-MB-231 cells
  neutrophil cytotoxicity / neutrophil mediated killing of MDA-MB-231 cells: does not induce neutrophil mediated cell killing
4T1 cells
  viability of 4T1 cells co-cultured with neutrophils purified from chemokine treated mice: did not induce a reduction in cell viability
